Results on one variant are retold here after paper PMC11078644, “Nesprin-2 is a novel scaffold protein for telethonin and FHL-2 in the cardiomyocyte sarcomere” (The Journal of Biological Chemistry, 2024).

First the molecules themselves.
B1: HA-tagged telethonin WT, purified recombinant protein, without PKD pre-treatment [not stated] / GST-nesprin-2 SR51-53 (amino acids 6018-6354) [human] (parent)
chain 1: MATSELSCEVSEENCERREAFWAEWKDLTLSTRPEEGCSLHEEDTQRHETYHQQGQCQVLVQRSPWLMMRMGILGRGLQEYQLPYQRVLPLPIFTPAKMGATKEEREDTPIQLQELLALETALGGQCVDRQEVAEITKQLPPVVPVSKPGALRRSLSRSMSQEAQRG
chain 2: KETFAFIQQLDKNMSNLRTWLARIESELSKPVVYDVCDDQEIQKRLAEQQDLQRDIEQHSAGVESVFNICDVLLHDSDACANETECDSIQQTTRSLDRRWRNICAMSMERRMKIEETWRLWQKFLDDYSRFEDWLKSAERTAACPNSSEVLYTSAKEELKRFEAFQRQIHERLTQLELINKQYRRLARENRTDTASRLKQMVHEGNQRWDNLQRRVTAVLRRLRHFTNQREEFEGTRESILVWLTEMDLQLTNVEHFSESDADDKMRQLNGFQQEITLNTNKIDQLIVFGEQLIQKSEPLDAVLIEDELEELHRYCQEVFGRVSRFHRRLTSCTPGL

The variants in this experiment derive from B1. In words: GST pull-down, densitometry. Conditions: with GST-nesprin-2 SR51-53 (amino acids 6018-6354) [human]; without PKD pre-treatment (P-); n = 5; parent: 1; read off a plot.
Regarding chain 1 MATSELSCEVSEENCERREAFWAEWKDLTLSTRPEEGCSLHEEDTQRHETYHQQGQCQVLVQRSPWLMMRMGILGRGLQEYQLPYQRVLPLPIFTPAKMGATKEEREDTPIQLQELLALETALGGQCVDRQEVAEITKQLPPVVPVSKPGALRRSLARSMAQEAQRG [chain 1 S157A S161A], the ratio to parent turned out to be 1.1.
